T1: human C-reactive protein (human, UniProt P02741 19-224, biotinylated or conjugated to AlexaFluor488 for labeling)
T1 construct: Bought protein; also called CRP; C-RP
T1 sequence (looked up): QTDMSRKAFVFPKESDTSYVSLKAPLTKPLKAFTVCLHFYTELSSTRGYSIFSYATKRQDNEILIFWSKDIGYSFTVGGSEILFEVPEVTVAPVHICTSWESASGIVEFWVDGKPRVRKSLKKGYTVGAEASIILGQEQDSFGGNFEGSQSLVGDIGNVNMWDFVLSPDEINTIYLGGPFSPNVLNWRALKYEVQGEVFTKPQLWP

B1: SEQ ID NO 244 (peptide)
peptide: ADTICWYVCTISVHA
notes: insert only
B2: SEQ ID NO 245 (peptide)
peptide: IMMECFYVCTIANTQ
notes: insert only
B3: SEQ ID NO 247 (peptide)
peptide: YPPRFQYYRFYYRGP
notes: insert only
B4: SEQ ID NO 253 (peptide)
peptide: MIFNSRGFLSLMSSG
notes: insert only
B5: SEQ ID NO 255 (peptide)
peptide: EWACNDRGFNCQLQR
notes: insert only
B6: SEQ ID NO 256 (peptide)
peptide: FPIYNQRGFITLASP
notes: insert only
B7: SEQ ID NO 232 (peptide)
peptide: RLEICQNVCYYLGTL
notes: insert only
B8: SEQ ID NO 233 (peptide)
peptide: TVLICMNICWTGETQ
notes: insert only
B9: SEQ ID NO 234 (peptide)
peptide: ICSYVMYTTCFLRVY
notes: insert only
B10: SEQ ID NO 235 (peptide)
peptide: RLEICQNVCYYLGTL
notes: insert only
B11: SEQ ID NO 236 (peptide)
peptide: TVLICMNICWTGETQ
notes: insert only
B12: SEQ ID NO 237 (peptide)
peptide: ICSYVMYTTCFLRVY
notes: insert only
B13: SEQ ID NO 238 (peptide)
peptide: YWVCMNVCMYYTARQ
notes: insert only
B14: SEQ ID NO 239 (peptide)
peptide: LPVWCVMHVCLTSSR
notes: insert only
B15: SEQ ID NO 241 (peptide)
peptide: NEWYCQNVCERMPHS
notes: insert only
B16: SEQ ID NO 242 (peptide)
peptide: TWVQCTMVCYGMSTT
notes: insert only

How the values were obtained:
streptavidin [1] = target: T2, streptavidin (UniProt P22629 37-163, limits assumed); experiment: bacterial display selection
T2 construct: Used as streptavidin-phycoerythrin in flow cytometry and as coated beads for YFP-SA-1; also called SA; streptavidin-phycoerythrin

human C-reactive protein = target: T1, human C-reactive protein; experiment: bacterial display selection
streptavidin [2] = target: T2, streptavidin; experiment: flow cytometry, equilibrium
Experimental: The corresponding mean fluorescence versus concentration data were fit to a monovalent binding isotherm to obtain the apparent KD. Dissociation rates of streptavidin-binding clones were measured in the presence of about 1 to about 2 μM biotin. Cells were labeled with 50 nM streptavidin-phycoerythrin for 30 minutes at room temperature. The cells were then pelleted, resuspended in PBS with biotin, and immediately analyzed by flow cytometry. Fluorescence data were collected continuously for about five minutes. The dissociation rate constants were then determined as described previously. See Daugherty, P. S., et al. (1998) Protein Eng. 11(9):825-832, which is herein incorporated by reference.

T2 sequence (P22629 37-163 limits assumed): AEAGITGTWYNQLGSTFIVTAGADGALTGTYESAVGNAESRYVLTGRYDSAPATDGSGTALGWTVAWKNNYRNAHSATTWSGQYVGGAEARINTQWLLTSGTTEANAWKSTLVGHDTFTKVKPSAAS

Binder | binding result (streptavidin [1]) | also measured
B1 | binds | 
B2 | binds | 
B3 |  | binding result (human C-reactive protein): binds
B4 |  | binding result (human C-reactive protein): binds
B5 |  | binding result (human C-reactive protein): binds
B6 |  | binding result (human C-reactive protein): binds
B7 |  | binding result (streptavidin [2]): binds
B8 |  | binding result (streptavidin [2]): binds
B9 |  | binding result (streptavidin [2]): binds
B10 | binds | 
B11 | binds | 
B12 | binds | 
B13 | binds | 
B14 | binds | 
B15 | binds | 
B16 | binds | 

— patent US20130210673A1 (published 2013)
